This is an account of results in publication PMC6255760 (Nature Communications, 2018).

Data set [1] concerns the molecule itself. Kind of data set: negative stain EM; FLAG-tagged proteins overexpressed in HEK293T, purified with anti-FLAG M2 agarose beads and concentrated; filaments looked for.
Data set [2] deals with the molecule itself. Description: induced oligomerization assay; RIP2 and NLRC4–CARD monomers each mixed with their own and with other seed complexes (Supplementary Figure 4d).
Data set [3] concerns the molecule itself. Description: negative stain EM; recombinant SNAP–RIP2–CARD seeds co-incubated with refolded monomers (about 20 μM monomer, 10:1 monomer to seed, overnight); SNAP removed with 3C protease for the core filaments; 49,000x.
Data set [4] deals with the molecule itself. Kind of data set: SEC; size-exclusion profiles of the purified NOD1/RIP2 and NOD2/RIP2 fusion proteins. A general note: In gel filtration, larger molecules generally elute earlier.
Data set [5] deals with the molecule itself. Description: cryo-EM structure; helical reconstruction of core RIP2–CARD–EM filaments, 4.1 Å (FSC = 0.143), Relion 2.0.

B1: FLAG–RIP2-kinase-NLRC4–CARD (other, human, UniProt O43353 1-431, looked up)
chain: MNGEAICSALPTIPYHKLADLRYLSRGASGTVSSARHADWRVQVAVKHLHIHTPLLDSERKDVLREAEILHKARFSYILPILGICNEPEFLGIVTEYMPNGSLNELLHRKTEYPDVAWPLRFRILHEIALGVNYLHNMTPPLLHHDLKTQNILLDNEFHVKIADFGLSKWRMMSLSQSRSSKSAPEGGTIIYMPPENYEPGQKSRASIKHDIYSYAVITWEVLSRKQPFEDVTNPLQIMYSVSQGHRPVINEESLPYDIPHRARMISLIESGWAQNPDERPSFLKCLIELEPVLRTFEEITFLEAVIQLKKTKLQSVSSAIHLCDKKKMELSLNIPVNHGPQEESCGSSQLHENSGSPETSRSLPAPQDNDFLSRKAQDCYFMKLHHCPGNHSWDSTISGSQRAAFCDHKTTPCSSAIINPLSTAGNSERLMNFIKDNSRALIQRMGMTVIKQITDDLFVWNVLNREEVNIICCEKVEQDAARGIIHMILKKGSESCNLFLKSLKEWNYPLFQDLNGQSLFHQTSEGDLDD
notes: RIP2 (RIPK2), human, what is left of 1–540 when the CARD domain (432–540) is replaced; NLRC4 CARD, human, residues 1–100, in place of the RIP2–CARD domain; the limit 431 is worked out from the replaced stretch 432–540; also called chimeric RIP2; NLRC4–CARD swapped construct; source: HEK293T, transfected; purified from cellular extracts (EM); in total cellular extracts (sedimentation); not shown: …
In the case of B1, the binding result in data set [1] is given as “binds”.

B2: SNAP–RIP2–CARD (domain or fragment, human, UniProt O43353 432-540, looked up)
chain: QPGIAQQWIQSKREDIVNQMTEACLNQSLDALLSRDLIMKEDYELVSTKPTRTSKVRQLLDTTDIQGEEFAKVIVQKLKDNKQMGLQPYPEILVVSRSPSLNLLQNKSM
modifications: BG-Alexa Fluor 647 on monomers, BG-Alexa Fluor 488 on seeds (native gel assay)
notes: RIP2 (RIPK2), human, CARD domain residues 432–540; a 3C protease site lies between SNAP and the CARD; the methods also name a RIP2–CARD (432–540)–SNAP; also called SNAP–RIP2–CARD seeds; SNAP–RIP2–CARD monomers; source: E. coli BL21(DE3), purified (Ni-NTA, SEC): oligomeric seed fraction; not shown: SNAP-tag, N-terminal, kept
For the protein B2, in data set [2], the binding result is reported as “binds”.

B3: core RIP2–CARD filament (SNAP removed) (domain or fragment, human, UniProt O43353 432-540, looked up)
chain: B2 chain
notes: RIP2 (RIPK2), human, CARD domain residues 432–540; also called 3C-protease-digested core RIP2–CARD thin filament; source: E. coli BL21(DE3); extended SNAP–RIP2–CARD filaments digested with 3C protease, purified (Superose 6); not shown: SNAP-tag, N-terminal, cleaved
As to B3, in data set [3], the binding result is reported as “binds”.

B4: top-down NOD2/RIP2 fusion construct (other)
chain: QPGIAQQWIQSKERDIVNQMTEACLNQSLDALLSRDLIMKEDYELVSTKPTRTSKVRQLLDTTDIQGEEFAKVIVQKLKDNKQMGLQPYPEILVVSRSPSLNLLQNKSMMCSQEAFQAQRSQLVELLVSGSLEGFESVLDWLLSWEVLSWEDYEGFHLLGQPLSHLARRLLDTVWNKGTWACQKLIAAAQEAQADSQSPKLHGCWDPHSLHPARDLQSHRPAIVRRLHSHVENMLDLAWERGFVSQYECDEIRLPIFTPSQRARRLLDLATVKANGLAAFLLQHVQELPVPLALPLEAATCK
Turning to B4, the stoichiometry N – broadly, a count of units in the complex or per binding partner – in data set [4] is ~4.

B5: RIP2–CARD–EM (domain or fragment, human)
chain: VDEALREAQTKSAQPGIAQQWIQSKREDIVNQMTEACLNQSLDALLSRDLIMKEDYELVSTKPTRTSKVRQLLDTTDIQGEEFAKVIVQKLKDNKQMGLQPYPEILVVSRS
notes: 13 extra amino acids (13aa) attached to the N-terminus of residue 432 of RIP2–CARD; RIP2 (RIPK2), human, CARD domain 432–529 (last 11 residues of 432–540 removed); also called core RIP2–CARD–EM; RIP2–CARD (432–529); source: E. coli BL21(DE3); not shown: SNAP-tag, N-terminal, cleaved
For B5, in data set [5], the binding result is “binds”.

B6: top-down NOD1/RIP2 fusion construct (other)
chain: QPGIAQQWIQSKERDIVNQMTEACLNQSLDALLSRDLIMKEDYELVSTKPTRTSKVRQLLDTTDIQGEEFAKVIVQKLKDNKQMGLQPYPEILVVSRSPSLNLLQNKSMMEEQGHSEMEIIPSESHPHIQLLKSNRELLVTHIRNTQCLVDNLLKNDYFSAEDAEIVCACPTQPDKVRKILDLVQSKGEEVSEFFLYLLQQLADAYVDLRPWLLEIGFS
For the protein B6, the “stoichiometry N” value in data set [4] is ~4.
